1 molecule from patent publication US20250313602A1 (NANJING JSIAMA BIOPHARMACEUTICALS, published 2025) can be followed below.

Assay [1] deals with T1, human IL-2Rβ protein (10696-H05H, Sino Biological) (human, UniProt P14784 27-239).
T1 construct: Both are treated as the same protein; also called receptor IL-2Rβ protein; CD122
T1 sequence (looked up): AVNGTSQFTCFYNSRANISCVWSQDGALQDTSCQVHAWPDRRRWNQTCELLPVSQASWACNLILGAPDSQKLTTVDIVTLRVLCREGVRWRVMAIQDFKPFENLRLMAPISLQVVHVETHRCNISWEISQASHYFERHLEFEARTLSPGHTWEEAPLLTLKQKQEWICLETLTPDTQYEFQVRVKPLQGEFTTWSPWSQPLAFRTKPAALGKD
The experiment in a line: ELISA, IL-2Rβ coated at 2 µg/ml; reference wild-type IL-2. On the technique in general: ELISA stands for enzyme-linked immunosorbent assay.

In assay [2] the target is T2, human IL-2Rα protein (10165-H08H, Sino Biological) (human, UniProt P01589 22-213).
T2 construct: Both are treated as the same protein; also called receptor IL-2Rα protein; CD25
T2 sequence (looked up): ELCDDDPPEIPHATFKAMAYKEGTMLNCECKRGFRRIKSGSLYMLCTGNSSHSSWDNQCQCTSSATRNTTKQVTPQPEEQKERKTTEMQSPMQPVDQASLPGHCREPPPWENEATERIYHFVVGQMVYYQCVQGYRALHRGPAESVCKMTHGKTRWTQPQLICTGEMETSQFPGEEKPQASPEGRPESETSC
The experiment in a line: ELISA, IL-2Rα coated at 2 µg/ml.

B1: IL-2-Fc fusion protein (Fc fusion)
chain: APTSSSTKKTQLQLEHLLLDLQMILNGINNYKNPKLTAMLTFKFYMPKKATELKHLQCLEEELKPLEEVLNLAQSKNFHFDPRDVVSNINVFVLELKGSETTFMCEYADETATIVEFLNRWITFCQSIISTLTGGGGSGGGGSGGGGSEPKSCDKTHTCPPCPAPEAAGGPSVFLFPPKPKDTLYITREPEVTCVVVDVSHEDPEVKFNWYVDGVEVHNAKTKPREEQYNSTYRVVSVLTVLHQDWLNGKEYKCKVSNKALPAPIEKTISKAKGQPREPQVYTLPPSREEMTKNQVSLTCLVKGFYPSDIAVEWESNGQPENNYKTTPPVLDSDGSFFLYSKLTVDKSRWQQGNVFSCSVMHEALHNHYTQKSLSLSPK
Consider B1, for which the “fold improvement of binding capacity compared with wild-type IL-2” value in assay [1] came to 24 times. The binding result in assay [2] is given as “binds”.
